Positions count from the first letter of the chain named. One block for each binder: values may come before it. No end group written: not given here.
Legend:
Assay in all cases: ELISA on coated KLH-conjugated peptide
human OX40 peptide 112C = target: T1, human OX40 peptide 112C (human, also: conjugated to KLH via maleimide linker)
T1 peptide: LAGKHTLQPASNSSDAIC
Description: (§1) Antibody titers, specificity, and production by hybridomas were determined by ELISA. In brief, 96 well flat bottom plates were coated with 50 μl of hOX40:hFc at 5 μg/ml in carbonate buffer (pH 9.4) overnight at 4° C. or at 37° C. for one hour. After washing twice with PBS/0.1% Tween 20, plates were blocked with PBS/1% BSA/0.1% Tween20 at 37° C. for one hour. The serum, supernatant, or purified antibody was diluted in blocking buffer, added to the wells, and the plates were incubated for one hour at 37° C. The plates were washed four times with PBS/0.1% Tween 20 and the peroxidase conjugated sheep anti-human kappa detection antibody (The Binding Site, Birmigham, UK) was added at a dilution of 1:2000. Following one hour incubation at 37° C., the plates were washed and the TMB (Sigma) substrate was added and incubated at room temperature for ten to thirty minutes. The reaction was stopped with H₂SO₄ (LabChem) and the optical density was measured at 450 nm by a microplate reader.
(§2) The peptides were generated by A & A Lab, LLC and conjugated to keyhole limpet hemocyanin (“KLH”) with a maleimide linker following the manufacturer's instructions (Pierce). The peptides were coated at 10 μg/ml in carbonate buffer to 96 well Maxisorp ELISA plates (Nunc) at 4° C. overnight. The plate was washed with PBS/0.1% Tween 20 and then blocked with Casein buffer (Pierce) for three hours at room temperature. Candidate antibodies were added at 10 μg/ml diluted in 10% Casein in PBS/0.1% Tween 20. The remainder of the ELISA was performed as described for the OX40 specific antibody detection ELISA.

human OX40 peptide 112B = target: T2, human OX40 peptide 112B (human, also: conjugated to KLH via maleimide linker)
T2 peptide: RAGTQPLDSYKPGVDC
Description: as §1, §2

human OX40 peptide 112A = target: T3, human OX40 peptide 112A (human, also: conjugated to KLH via maleimide linker)
T3 peptide: RPAGPGFYNDVVSSKPC
Description: as §1, §2

- binding result (human OX40 peptide 112C): no binding (tested: 10 µg/ml)
- binding result (human OX40 peptide 112B): no binding (tested: 10 µg/ml)
- binding result (human OX40 peptide 112A): no binding (tested: 10 µg/ml)
B1: 112Y55 human anti-human OX40 monoclonal antibody (hybridoma ATCC No. PTA-7220) (antibody, V domains shown)
VH: QITLKESGPTLVKPTQTLTLSCTFSGFSLSTSGVGVGWIRQPPGKALEWLALIHWDDAERYSPSLKSRLTITKDTSKNQVVLTMTNMDLVDTATYYCAHTRGAFDIWGQGTMVTVSS
VL: EIVLTQSPGTLSLSPGERAILSCRASQSVSSSFLAWYQQKPGQAPRLLIYGAFSRATGIPDRFSGSGSGTDFTLTISRLEPEDFAVYYCQQYDSSRTFGQGTKVEIK

- binding result (human OX40 peptide 112C): no binding (tested: 10 µg/ml)
- binding result (human OX40 peptide 112B): no binding (tested: 10 µg/ml)
- binding result (human OX40 peptide 112A): no binding (tested: 10 µg/ml)
B2: 112Y131 human anti-human OX40 monoclonal antibody (hybridoma ATCC No. PTA-7218) (antibody, V domains shown)
VH: B1 VH with S21T, H54Y, A58H, E59S, R60P, L89P, H99R
VL: EIVLTQSPATLSLSPGERATLSCRASQGVSSYLAWYQQKPGQAPRLLIYDASNRATGIPARFSGSGPGTDFTLTISSLEPEDFAVYYCQQRSNWHPTFGQGTKVEIK
